This assay deals with T1, UL31 1-306 R229L_(UL31) (HSV-1, UniProt P10215 1-306, R229L).
T1 construct: also called SUP_(UL31); UL31 chain of NEC220-SUP_(UL31)
T1 sequence: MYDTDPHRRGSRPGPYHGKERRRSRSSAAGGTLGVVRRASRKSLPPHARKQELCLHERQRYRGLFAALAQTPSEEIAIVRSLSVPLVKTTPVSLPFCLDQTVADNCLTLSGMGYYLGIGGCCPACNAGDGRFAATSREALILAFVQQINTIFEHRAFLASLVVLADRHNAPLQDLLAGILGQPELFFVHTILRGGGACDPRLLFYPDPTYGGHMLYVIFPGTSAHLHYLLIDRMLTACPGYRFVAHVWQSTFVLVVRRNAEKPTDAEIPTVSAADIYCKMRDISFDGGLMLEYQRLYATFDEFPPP
The experiment in a line: cryo-EM structure; cryoET with sub-tomographic averaging of membrane-bound coats; 1 mg/mL NEC with 400 and 800 nm LUVs (POPC:POPS:POPA = 3:1:1), 30 min on ice. The settings on record: both partners purified.

These results are taken from article PMC10817169, “The universal suppressor mutation restores membrane budding defects in the HSV-1 nuclear egress complex by stabilizing the oligomeric lattice” (PLOS Pathogens, 2024).

B1: UL34 1-220 D35A_(UL34)/E37A_(UL34) (domain or fragment)
chain: MAGLGKPYTGHPGDAFEGLVQRIRLIVPSTLRGGAGAAGPYSPSSLPSRCAFQFHGHDGSDESFPIEYVLRLMNDWAEVPCNPYLRIQNTGVSVLFQGFFHRPHNAPGGAITPERTNVILGSTETTGLSLGDLDTIKGRLGLDARPMMASMWISCFVRMPRVQLAFRFMGPEDAGRTRRILCRAAEQAITRRRRTRRSREAYGAEAGLGVAGTGFRARGD
notes: also called DN_(UL34); UL34 chain of NEC220-DN_(UL34)/SUP_(UL31); not shown: GST, N-terminal, cleaved
Turning to B1, the binding result is recorded as “binds”.
